# Laboratory results taken from patent publication US9956260.
# Assays:
# Test in all cases: cell-based or functional assay
# caspase-3 (human) = target: T1, caspase-3 (human) (UniProt P42574)
# T1 sequence: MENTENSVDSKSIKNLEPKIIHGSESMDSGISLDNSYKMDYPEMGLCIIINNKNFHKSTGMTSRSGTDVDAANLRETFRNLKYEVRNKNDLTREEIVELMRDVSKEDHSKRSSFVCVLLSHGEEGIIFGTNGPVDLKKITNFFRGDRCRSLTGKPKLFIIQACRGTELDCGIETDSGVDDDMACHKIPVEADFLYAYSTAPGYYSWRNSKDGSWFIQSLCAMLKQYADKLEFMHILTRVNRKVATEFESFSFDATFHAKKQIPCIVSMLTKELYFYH
# [1] = target: HIV-1 gp41 of WEAU 16-8 (primary virus) (HIV-1 (primary isolate WEAU 16-8))
# [2] = target: HIV-1 gp41 of NL4-3 (WT lab-adapted virus) (HIV-1 (NL4-3))
Substance,decrease in CD4 T-cell death in HIV-infected HLACs (caspase-3 (human)),percentage of viable CD4 T cells in HIV-1-infected HLACs after 3 days (flow cytometry; inhibitors 20 µM each) (caspase-3 (human)),"viral infection of HLACs (p24gag FLAQ assay, day 9) [1]","viral infection of HLACs (p24gag FLAQ assay, day 9) [2]","viral infection of HLACs (p24gag FLAQ assay, day 9) (µg/ml (printed 'gi/ml')) [2]"
Z-DEVD-FMK (peptide),50%,50%,,,
enfuvirtide (T20) (peptide),,,0.1 µg/mL,> 2 µg/mL,10
